Biological target: the molecule itself
Assay: crystal structure; reduced form, 1.90 Å, space group C2; five subunits in the asymmetric unit (two dimers and a monomer), decamer (pentamer of dimers) by crystal symmetry; crystals at 16°C, 10% PEG MME 5,000, 0.1 M HEPES-NaOH pH 8.0, with 14 mM β-mercaptoethanol and 10 mM DTT

B1: Pseudosciaena crocea peroxiredoxin 4 (Prx4), mature protein without the 29-residue signal peptide (enzyme)
chain: EEAAHVKNSQCHNYAGGHVYPGEAFRVPVSDHSLHLSKAKISKPAPQWEGTAVINGEFKELKLSDYRGKYLVFFFYPLDFTFVCPTEIIAFSDRVHEFRAINTEVVACSVDSQFTHLAWIITPRKQGGLGPMKIPLLSDLTHQISKDYGVYLEDQGHTLRGLFIIDEKGVLRQITMNDLPVGRSVDETLRLVQAFQYTDKHGEVCPAGWKPGSDTIIPDPSGKLKYFDKMK
stoichiometry N: 10
